T1: human follicle stimulating hormone receptor (human, UniProt P23945 18-695)
T1 construct: whole, on cells; also called human FSHR; human FSH receptor
T1 sequence (looked up): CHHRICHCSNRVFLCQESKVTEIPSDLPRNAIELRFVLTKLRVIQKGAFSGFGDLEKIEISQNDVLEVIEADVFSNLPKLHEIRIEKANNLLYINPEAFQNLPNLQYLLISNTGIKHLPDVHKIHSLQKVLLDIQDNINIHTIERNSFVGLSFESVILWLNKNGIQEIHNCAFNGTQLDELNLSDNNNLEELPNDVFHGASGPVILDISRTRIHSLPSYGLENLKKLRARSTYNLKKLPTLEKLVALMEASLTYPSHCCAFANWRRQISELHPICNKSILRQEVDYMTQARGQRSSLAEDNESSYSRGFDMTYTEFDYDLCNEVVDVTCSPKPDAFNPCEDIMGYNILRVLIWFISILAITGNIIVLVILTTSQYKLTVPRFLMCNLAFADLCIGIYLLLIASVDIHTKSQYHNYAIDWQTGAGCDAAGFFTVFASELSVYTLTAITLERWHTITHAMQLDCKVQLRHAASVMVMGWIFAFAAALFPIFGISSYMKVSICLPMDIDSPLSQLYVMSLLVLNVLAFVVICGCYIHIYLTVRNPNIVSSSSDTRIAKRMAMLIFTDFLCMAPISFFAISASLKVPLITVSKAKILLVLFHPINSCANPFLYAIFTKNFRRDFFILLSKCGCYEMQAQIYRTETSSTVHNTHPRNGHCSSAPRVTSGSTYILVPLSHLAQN


Key:
human serum albumin [1] = target: T2, human serum albumin (human, UniProt P02768 25-609); test: BLI (Octet Red), HSA immobilised on AR2G sensor, pH 6.0
T2 construct: Immobilised on an AR2G biosensor; also called HSA; human serum albumin (Sigma)
T2 sequence (P02768 25-609 limits assumed): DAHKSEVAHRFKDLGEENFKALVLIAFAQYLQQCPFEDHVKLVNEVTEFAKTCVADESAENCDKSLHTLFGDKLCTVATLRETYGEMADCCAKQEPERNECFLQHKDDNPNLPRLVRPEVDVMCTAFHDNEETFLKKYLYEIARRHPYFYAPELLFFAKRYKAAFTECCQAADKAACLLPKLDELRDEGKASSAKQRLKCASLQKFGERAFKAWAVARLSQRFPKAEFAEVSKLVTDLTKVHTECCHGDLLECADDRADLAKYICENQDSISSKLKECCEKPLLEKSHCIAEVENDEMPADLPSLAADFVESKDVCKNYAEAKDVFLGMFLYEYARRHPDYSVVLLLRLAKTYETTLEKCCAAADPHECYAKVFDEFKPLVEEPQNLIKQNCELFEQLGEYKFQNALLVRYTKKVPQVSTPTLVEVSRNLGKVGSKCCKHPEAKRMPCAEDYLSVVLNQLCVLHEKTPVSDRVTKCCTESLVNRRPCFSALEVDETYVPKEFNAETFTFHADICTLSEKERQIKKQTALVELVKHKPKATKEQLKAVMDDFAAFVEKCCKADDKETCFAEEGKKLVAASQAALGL
Method: (§1) By using Bio-Layer Interferometry (BLI) and Octet® BLI systems (Octet® Red, Sartorius, Germany), the binding ability of the SAFA-FSH protein to human serum albumin was analyzed. On an AR2G biosensor chip (Sartorius, Germany), human serum albumin (Sigma) was immobilized at a concentration of 30 μg/mL with a 10 mM acetate buffer pH 5.0, and the SAFA-FSH protein was added thereto at concentrations of 6.25 nM, 3.125 nM, 1.56 nM, and 0.78 nM (association: 600 s, dissociation: 900 s), so as to confirm the binding ability between the two under conditions of pH 7.4 or pH 6.0 conditions.

human serum albumin [2] = target: T2, human serum albumin; test: BLI (Octet Red), HSA immobilised on AR2G sensor, pH 7.4
Method: as §1

[3] = target: T1, human follicle stimulating hormone …; test: flow cytometry on human FSHR stable HEK293 cells, detection with goat anti-human IgG Fd-FITC
Method: By using a human FSHR stable cell line (HEK293, Creative Biogene, USA) expressing human FSH receptors on the surface, the binding between the SAFA-FSH protein and the FSH receptors was analyzed with a CytoFLEX flow cytometer (Beckman Coulter, USA).
Subsequently, the binding between the SAFA-FSH protein and the human FSHR was confirmed by using the human FSHR stable cell line in which the expression of human FSHR was confirmed. Specifically, the human FSHR stable cells were dissolved in MACS buffer (PBS containing 0.5% BSA and 2 mM EDTA) at a concentration of 1×10⁶ cells/ml, and then added in an amount of 100 μl (1.0×10⁵ cells/test) to a 1.7 ml tube. The cells were then centrifuged at 500×g at 4° C. for 5 minutes. After removing the supernatant from the 1.7 ml tube, 100 μl each of the SAFA-FSH protein and the SL335 fragment that were diluted with MACS buffer at a concentration from 1,000 nM to 0.064 nM was added to the same tube to proceed a reaction at 4° C. for 30 minutes. After 500 μl of MACS buffer was added to the tube and the cells were centrifuged at 500×g at 4° C. for 5 minutes, the supernatant was removed therefrom to remove unbound proteins. 100 μl of goat anti-human IgG Fd-FITC (Southern Biotech, USA) antibody diluted with MACS buffer at a ratio of 1:500 was added to the tube to proceed a reaction at 4° C. for 30 minutes. […]

Row | Binder | Kd (human serum albumin [1]) [nM] | koff (human serum albumin [1]) [s⁻¹] | kon (human serum albumin [1]) [M⁻¹ s⁻¹] | Kd (human serum albumin [2]) [nM] | koff (human serum albumin [2]) [s⁻¹] | kon (human serum albumin [2]) [M⁻¹ s⁻¹] | binding result [3]
1 | SAFA-FSH-B protein (other, Anti-serum-albumin Fab SL335 with hFSH beta on the C-terminus of CH1 and hFSH alpha on the C-terminus of CL; also called SAFA-FSH protein; recombinant fusion protein) heavy: QVQLVQSGGGPVKPGGSLRLSCAASGFMFRAYSMNWVRQAPGKGLEWVSSISSSGRYIHYADSVKGRFTISRDNAKNSLYLQMNSLRAEDTAVYYCARETVMAGKALDYWGQGTLVTVSSASTKGPSVFPLAPSSKSTSEGTAALGCLVKDYFPEPVTVSWNSGALTSGVHTFPAVLQSSGLYSLSSVVTVPSSSLGTQTYICNVNHKPSNTKVDKKVEPKSSGGGGSGGGGSGGGGSNSCELTNITIAIEKEECRFCISINTTWCAGYCYTRDLVYKDPARPKIQKTCTFKELVYETVRVPGCAHHADSLYTYPVATQCHCGKCDSDSTDCTVRGLGPSYCSFGEMKE light: not shown | 0.313 | 0.000149 | 475000 | 0.359 | 0.000136 | 379000 | 
2 | SL335 fragment (Fab, V domains shown, Fab without FSH, used as the control in the FSHR flow cytometry assay; also called human anti-serum albumin Fab antibody fragment) VH: QVQLVQSGGGPVKPGGSLRLSCAASGFMFRAYSMNWVRQAPGKGLEWVSSISSSGRYIHYADSVKGRFTISRDNAKNSLYLQMNSLRAEDTAVYYCARETVMAGKALDYWGQGTLVTVSS VL: DIVLTQSPGTLSLSPGETATLSCRASQSVGSNLAWYQQKPGQAPRLLIYGASTGATGVPARFSGSRSGTDFTLTITSLQPEDFATYYCQQYYSFLAKTFGQGTQLEIKR |  |  |  |  |  |  | no binding (tested: 1000 nM)
